Source: patent publication US10646540B2, “Peptide inhibitors of twist” (City of Hope, priority 2016, dated 2020)
Entries after “also recorded” stand apart in the source; their conditions may differ. Ends that are not written are not given here. Peptide text beside a SMILES is read from it. * marks the point of attachment. Cbz = O=C(OCc1ccccc1)*

Key:
IL-8 promoter = experiment: Dual luciferase assay, firefly luciferase under control of the IL-8 promoter, in Ovcar4 cells; format: cell-based
Experimental: HEK-293 cells were grown in McCoy's 5A medium supplemented with 10% fetal bovine serum (FBS) and 1% penicillin/streptomycin (P/S). Ovcar4 cells were grown in RPMI medium with 10% FBS and 1% P/S. All cells were maintained at 37° C. and 90% humidity in a tissue culture incubator with 5% CO2 atmosphere. Cells were passaged every 2-4 days as they became confluent, using 0.25% trypsin. Where indicated, cells were transfected using 5 μL per well Lipofectamine 2000 (Life Technologies, Carlsbad, Calif.) in a total of 2 mL per well of OptiMEM low serum medium (Life Technologies). For proteasome inhibition studies, MG132 was added to cells in normal medium four hours after transfection and left on overnight. 5 μM was used for western studies, and 1 μM was used for luciferase assays. […]
Ovcar4 cells were plated at 50,000-75,000 cells per well, in 500 μL RPMI, in a 24 well plate and allowed to adhere overnight. […] The day after transfection, luciferase expression was quantified using the Dual Luciferase Assay kit (Promega, Madison, Wis.) according to the manufacturer instructions.
Western blots were quantified using GeneTools software. Data were graphed and analyzed in Microsoft Excel and GraphPad Prism 6, respectively. […] Luciferase assays were analyzed using one-way ANOVA with correction for multiple comparisons. […]

TWIST1 [1] = target: T1, TWIST1 (Homo sapiens, UniProt Q15672); experiment: Cell fractionation and western blot of TWIST1 and GFP in HEK-293 cells; format: cell-based
T1 construct: The cloning of TWIST1 into the pcDNA4-MycHis vector has been described previously [14]; expressed in transfected cells; host or cells: HEK-293
T1 sequence (Q15672 1-202): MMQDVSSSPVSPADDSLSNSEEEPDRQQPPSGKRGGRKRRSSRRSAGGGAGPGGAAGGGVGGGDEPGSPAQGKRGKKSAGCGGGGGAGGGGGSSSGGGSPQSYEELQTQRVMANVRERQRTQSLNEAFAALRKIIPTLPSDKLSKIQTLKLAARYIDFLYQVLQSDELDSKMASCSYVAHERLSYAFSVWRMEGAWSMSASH
Experimental: HEK-293 cells were grown in McCoy's 5A medium supplemented with 10% fetal bovine serum (FBS) and 1% penicillin/streptomycin (P/S). Ovcar4 cells were grown in RPMI medium with 10% FBS and 1% P/S. All cells were maintained at 37° C. and 90% humidity in a tissue culture incubator with 5% CO2 atmosphere. Cells were passaged every 2-4 days as they became confluent, using 0.25% trypsin. Where indicated, cells were transfected using 5 μL per well Lipofectamine 2000 (Life Technologies, Carlsbad, Calif.) in a total of 2 mL per well of OptiMEM low serum medium (Life Technologies). For proteasome inhibition studies, MG132 was added to cells in normal medium four hours after transfection and left on overnight. 5 μM was used for western studies, and 1 μM was used for luciferase assays.
(§1) In order to create a competitive inhibitor for TWIST1-RELA binding, the WR domain from TWIST1 was fused to GFP. To achieve this, PCR was used to amplify the final 63 nucleotides of the TWIST1 gene (including stop codon) and add 5′ XhoI and 3′ BamHI restriction sites. The PCR fragment and the pEGFP-C3 vector were subjected to XhoI-BamHI double digest (New England BioLabs, Ipswich, Mass.) and the two were ligated together. GFP lacking the WR domain was used as a control, and includes residues at the C-terminus encoded by the multiple cloning site of the vector. As a result, the molecular weights of the two GFP proteins are indistinguishable on a western blot. To achieve equal expression of GFP-WR compared to unmodified GFP, it was necessary to transfect cells with three-fold more GFP-WR plasmid versus GFP. A one to one ratio was sufficient for CoIP illustrated in FIG. 4C. […]
Protein was run on 4% stacking, 10% resolving polyacrylamide gels and transferred to PVDF membrane (GE Healthcare Bio-Sciences, Pittsburgh, Pa.) on a Trans-Blot SD Semi-Dry Transfer Cell (Bio-Rad, Hercules, Calif.). […] Protein was detected using FemtoGlow chemiluminescent substrate (Michigan Diagnostics, Royal Oak, Mich.) and the Pxi4 imager (Syngene, Frederick, Md.). […]

TWIST1-RELA binding = target: T2, TWIST1-RELA binding (Homo sapiens, UniProt Q15672); experiment: Co-immunoprecipitation with RELA pulldown in transfected HEK-293 cells; details: increasing GFP-WR expression, total GFP held constant with control GFP
T2 construct: The cloning of TWIST1 into the pcDNA4-MycHis vector has been described previously [14]; The wild type RELA gene was also cloned into pcDNA4-MycHis; expressed in transfected cells; host or cells: HEK-293
T2 sequence (Q15672 1-202): T1 sequence (Q15672 1-202)
Excerpt: as §1, with “blot.” for “blot. To achieve equal expression of GFP-WR compared to unmodified GFP, it was necessary to transfect cells with three-fold more GFP-WR plasmid versus GFP. A one to one ratio was sufficient for CoIP illustrated in FIG. 4C.”
(§2) HEK-293 cells were plated at 500,000 cells per well, in 2 mL normal medium, in a 6 well plate and allowed to adhere. […] Cell pellets were lysed in RIPA buffer, and protein concentration was determined by BCA Protein Assay (Thermo Fisher, Waltham, Mass.). […]
(§3) Protein was run on 4% stacking, 10% resolving polyacrylamide gels and transferred to PVDF membrane (GE Healthcare Bio-Sciences, Pittsburgh, Pa.) on a Trans-Blot SD Semi-Dry Transfer Cell (Bio-Rad, Hercules, Calif.). […] Protein was detected using FemtoGlow chemiluminescent substrate (Michigan Diagnostics, Royal Oak, Mich.) and the Pxi4 imager (Syngene, Frederick, Md.). Quantitation was performed using the accompanying GeneTools software.

RELA = target: T3, RELA (Homo sapiens, UniProt Q04206); experiment: Co-immunoprecipitation with GFP pulldown in transfected HEK-293 cells; format: binding; details: data not shown
T3 construct: The wild type RELA gene was also cloned into pcDNA4-MycHis; expressed in transfected cells; host or cells: HEK-293
T3 sequence (Q04206 whole entry): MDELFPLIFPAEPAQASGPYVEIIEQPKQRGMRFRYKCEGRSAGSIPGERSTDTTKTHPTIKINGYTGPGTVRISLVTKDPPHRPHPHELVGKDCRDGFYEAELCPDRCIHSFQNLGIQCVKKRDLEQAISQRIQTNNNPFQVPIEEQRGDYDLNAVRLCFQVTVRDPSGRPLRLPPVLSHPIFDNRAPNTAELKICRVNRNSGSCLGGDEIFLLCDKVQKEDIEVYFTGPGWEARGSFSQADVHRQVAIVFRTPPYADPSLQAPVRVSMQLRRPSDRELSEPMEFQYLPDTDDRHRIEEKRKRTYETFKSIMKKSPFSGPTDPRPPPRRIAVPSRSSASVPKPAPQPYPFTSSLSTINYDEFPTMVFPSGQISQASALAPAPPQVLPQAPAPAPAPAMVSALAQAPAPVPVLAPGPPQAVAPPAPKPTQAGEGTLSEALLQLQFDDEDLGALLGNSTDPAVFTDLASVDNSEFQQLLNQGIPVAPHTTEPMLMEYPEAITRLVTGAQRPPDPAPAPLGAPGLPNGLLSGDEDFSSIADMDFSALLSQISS
Excerpt: as §1, with “blot.” for “blot. To achieve equal expression of GFP-WR compared to unmodified GFP, it was necessary to transfect cells with three-fold more GFP-WR plasmid versus GFP. A one to one ratio was sufficient for CoIP illustrated in FIG. 4C.”
as §2, §3

TWIST1 [2] = target: T1, TWIST1; experiment: as above; format: binding; details: increasing GFP-WR expression
Excerpt: as §1, with “blot.” for “blot. To achieve equal expression of GFP-WR compared to unmodified GFP, it was necessary to transfect cells with three-fold more GFP-WR plasmid versus GFP. A one to one ratio was sufficient for CoIP illustrated in FIG. 4C.”
as §2, §3

RELA co-precipitated with GFP (RELA)	absolute levels of TWIST1 and GFP in cytoplasmic and nuclear fractions (TWIST1 [1]; increasing amount of GFP-WR transfected)	Molecule	IL-8 promoter activity (FFluc expression) after proteasome inhibition (IL-8 promoter; MG132 1 μM overnight, cells expressing GFP-WR)	levels of TWIST1 and GFP in the cytoplasmic fraction after proteasome inhibition (TWIST1 [1]; MG132 5 μM overnight, cells expressing GFP-WR)	TWIST1 co-precipitated with RELA (TWIST1-RELA binding) (TWIST1-RELA binding)	TWIST1 co-precipitated with GFP (TWIST1 [2])	IL-8 promoter driven FFluc expression (normalized to Renilla luciferase) (IL-8 promoter; increasing dose of GFP-WR, Ovcar4 cells co-transfected with TWIST1 and RELA)	proportion of TWIST1 signal found in the cytoplasmic fraction (TWIST1 [1]; increasing GFP-WR transfection, western blot of fractionated cells)
–	–	CC(C)C[C@@H](C=O)NC(=O)[C@H](CC(C)C)NC(=O)[C@H](CC(C)C)NC(=O)OCc1ccccc1 [MG132, reference compound] (Cbz-Leu-Leu-Leu-aldehyde)	increases; also recorded: partial rescue	partially rescue	–	–	–	–
only trace amounts	decreased	GFP-WR: fusion protein of GFP and the 20 amino acid WR domain of TWIST1, expressed from pEGFP-C3 as competitive inhibitor of TWIST1-RELA binding (LELSYAFSVWRMEGAWSMSASH; also: fused to GFP)	–	–	reduced in a dose-dependent manner; also recorded: reduced in a dose dependent fashion	more TWIST1 co-precipitated; also recorded: co-precipitated to a greater degree	dose dependent drop; also recorded: dose-dependent reduction	slight increase; also recorded: mild increase
